Assay results reported in article PMC7952905.

Molecular target: human ACE2 extracellular domain (19-615) (human) (UniProt Q9BYF1)
Assay: SPR

human ACE2 extracellular domain (19-615) (human), sequence (Q9BYF1 19-615): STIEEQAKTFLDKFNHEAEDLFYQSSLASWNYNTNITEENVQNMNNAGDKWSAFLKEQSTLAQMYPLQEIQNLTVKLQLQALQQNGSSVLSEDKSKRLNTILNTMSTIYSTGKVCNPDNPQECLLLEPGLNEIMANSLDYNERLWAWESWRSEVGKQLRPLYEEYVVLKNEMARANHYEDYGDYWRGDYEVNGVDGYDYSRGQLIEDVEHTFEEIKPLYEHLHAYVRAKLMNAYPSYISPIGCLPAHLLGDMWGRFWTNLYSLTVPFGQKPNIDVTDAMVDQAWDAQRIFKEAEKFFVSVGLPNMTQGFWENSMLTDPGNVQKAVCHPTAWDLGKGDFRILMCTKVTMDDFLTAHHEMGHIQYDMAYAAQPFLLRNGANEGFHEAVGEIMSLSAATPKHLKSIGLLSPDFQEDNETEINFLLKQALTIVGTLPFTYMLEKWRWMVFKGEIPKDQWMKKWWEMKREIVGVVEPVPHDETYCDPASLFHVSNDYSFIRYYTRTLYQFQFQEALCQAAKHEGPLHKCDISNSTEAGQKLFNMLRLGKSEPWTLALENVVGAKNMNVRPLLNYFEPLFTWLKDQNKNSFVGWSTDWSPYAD

Q: With “PCoV_GX RBD (331-524) (domain or fragment)” as the substance, how does the Kd read?
A: 2.7 nM
